Blank lines part the entries; values can stand above or below the molecule they belong to. Where no end group is shown, it is not given here. The star is where a group is joined. Biotin = O=C1N[C@H]2[C@H](CS[C@H]2CCCCC(=O)*)N1; Ahx = NCCCCCC(=O)O
How the values were obtained:
[1] = molecular target: T1, GST–PPARα (ligand binding domain, TR-FRET) (Homo sapiens, UniProt Q07869); assay: TR-FRET cofactor peptide recruitment
T1 construct: gene PPARA
T1 sequence (Q07869 196-468 limits assumed): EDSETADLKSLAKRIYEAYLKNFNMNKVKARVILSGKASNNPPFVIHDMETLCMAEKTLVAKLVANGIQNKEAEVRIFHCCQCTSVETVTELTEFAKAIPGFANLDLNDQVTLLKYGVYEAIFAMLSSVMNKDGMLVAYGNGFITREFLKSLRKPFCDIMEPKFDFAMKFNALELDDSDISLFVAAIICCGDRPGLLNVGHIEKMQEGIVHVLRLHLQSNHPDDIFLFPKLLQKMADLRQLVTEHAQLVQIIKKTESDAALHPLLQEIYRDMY

[2] = molecular target: T2, PPARγ (Gal4-PPARγ LBD, transactivation) (Mus musculus, UniProt P37238); assay: Gal4-LBD luciferase transactivation, BHK21 cells; type: cell-based; settings: agonist; […] h, […] °C; unreliable
T2 construct: gene Pparg
T2 sequence (P37238 204-505): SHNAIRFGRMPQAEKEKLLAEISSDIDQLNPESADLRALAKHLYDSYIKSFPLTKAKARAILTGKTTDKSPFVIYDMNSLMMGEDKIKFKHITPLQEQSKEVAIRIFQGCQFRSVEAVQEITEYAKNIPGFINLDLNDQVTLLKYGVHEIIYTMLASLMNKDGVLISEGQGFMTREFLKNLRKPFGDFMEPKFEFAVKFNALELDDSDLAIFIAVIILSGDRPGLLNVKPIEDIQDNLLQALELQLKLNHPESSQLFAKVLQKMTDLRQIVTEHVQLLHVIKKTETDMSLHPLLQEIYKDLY

[3] = molecular target: T3, PPARδ (Gal4-PPARδ LBD, transactivation) (Homo sapiens, UniProt Q03181); assay: Gal4-LBD luciferase transactivation, BHK21 cells; type: cell-based; settings: agonist; […] h, […] °C; unreliable
T3 construct: gene PPARD
T3 sequence (Q03181 139-441): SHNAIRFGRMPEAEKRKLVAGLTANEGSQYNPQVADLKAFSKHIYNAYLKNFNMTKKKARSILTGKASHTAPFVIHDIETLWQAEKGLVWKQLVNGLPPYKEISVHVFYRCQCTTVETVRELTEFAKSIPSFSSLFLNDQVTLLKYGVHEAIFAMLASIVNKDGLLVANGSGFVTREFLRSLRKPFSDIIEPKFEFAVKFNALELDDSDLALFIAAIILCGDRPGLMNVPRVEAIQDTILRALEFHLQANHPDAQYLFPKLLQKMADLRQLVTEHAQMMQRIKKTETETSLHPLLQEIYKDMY

[4] = molecular target: T4, GST–PPARγ fusion protein (purified ligand binding domain of PPARγ); assay: FRET or BRET; homogeneous TR-FRET as a1, 12-concentration dose–response of RO4899100; the EC50 is of the compound; delta ratio in % of the reference compound at 10 μM (RO4899100 for PPARα, edaglitazone for PPARγ); settings: both partners purified
T4 chain: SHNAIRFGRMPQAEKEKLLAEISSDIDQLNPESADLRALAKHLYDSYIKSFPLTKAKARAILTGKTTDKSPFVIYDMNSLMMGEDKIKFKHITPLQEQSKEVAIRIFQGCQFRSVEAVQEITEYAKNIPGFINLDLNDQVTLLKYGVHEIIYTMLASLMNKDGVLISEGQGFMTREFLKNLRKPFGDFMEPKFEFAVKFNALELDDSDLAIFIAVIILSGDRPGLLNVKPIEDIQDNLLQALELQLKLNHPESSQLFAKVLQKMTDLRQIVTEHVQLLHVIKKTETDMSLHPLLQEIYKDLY

[5] = molecular target: T4, GST–PPARγ fusion protein (purified …); assay: FRET or BRET; homogeneous TR-FRET as a1, 12-concentration dose–response of aleglitazar; the EC50 is of the compound; delta ratio in % of the reference compound at 10 μM (RO4899100 for PPARα, edaglitazone for PPARγ); settings: both partners purified
[6] = molecular target: T4, GST–PPARγ fusion protein (purified …); assay: FRET or BRET; homogeneous TR-FRET as a1, 12-concentration dose–response of farglitazar; the EC50 is of the compound; delta ratio in % of the reference compound edaglitazone at 10 μM; settings: both partners purified
[7] = molecular target: T4, GST–PPARγ fusion protein (purified …); assay: FRET or BRET; homogeneous TR-FRET as a1, 12-concentration dose–response of pioglitazone; the EC50 is of the compound; delta ratio in % of the reference compound at 10 μM (RO4899100 for PPARα, edaglitazone for PPARγ); settings: both partners purified
[8] = molecular target: T4, GST–PPARγ fusion protein (purified …); assay: FRET or BRET; homogeneous TR-FRET as a1, 12-concentration dose–response of rosiglitazone; the EC50 is of the compound; delta ratio in % of the reference compound at 10 μM (RO4899100 for PPARα, edaglitazone for PPARγ); settings: both partners purified
[9] = molecular target: T4, GST–PPARγ fusion protein (purified …); assay: FRET or BRET; homogeneous TR-FRET as a1, 12-concentration dose–response of tesaglitazar; the EC50 is of the compound; delta ratio in % of the reference compound at 10 μM (RO4899100 for PPARα, edaglitazone for PPARγ); settings: both partners purified
[10] = molecular target: T4, GST–PPARγ fusion protein (purified …); assay: FRET or BRET; homogeneous TR-FRET as a1, 12-concentration dose–response of muraglitazar; the EC50 is of the compound; delta ratio in % of the reference compound at 10 μM (RO4899100 for PPARα, edaglitazone for PPARγ); settings: both partners purified
[11] = molecular target: T4, GST–PPARγ fusion protein (purified …); assay: FRET or BRET; homogeneous TR-FRET as a1, 12-concentration dose–response of edaglitazone; the EC50 is of the compound; delta ratio in % of the reference compound at 10 μM (RO4899100 for PPARα, edaglitazone for PPARγ); settings: both partners purified
[12] = molecular target: T5, GST–PPARα fusion protein (purified ligand binding domain of PPARα); assay: FRET or BRET; homogeneous TR-FRET as a1, 12-concentration dose–response of pioglitazone; the EC50 is of the compound; delta ratio in % of the reference compound at 10 μM (RO4899100 for PPARα, edaglitazone for PPARγ)
T5 sequence (Q07869 whole entry, species assumed, looked up): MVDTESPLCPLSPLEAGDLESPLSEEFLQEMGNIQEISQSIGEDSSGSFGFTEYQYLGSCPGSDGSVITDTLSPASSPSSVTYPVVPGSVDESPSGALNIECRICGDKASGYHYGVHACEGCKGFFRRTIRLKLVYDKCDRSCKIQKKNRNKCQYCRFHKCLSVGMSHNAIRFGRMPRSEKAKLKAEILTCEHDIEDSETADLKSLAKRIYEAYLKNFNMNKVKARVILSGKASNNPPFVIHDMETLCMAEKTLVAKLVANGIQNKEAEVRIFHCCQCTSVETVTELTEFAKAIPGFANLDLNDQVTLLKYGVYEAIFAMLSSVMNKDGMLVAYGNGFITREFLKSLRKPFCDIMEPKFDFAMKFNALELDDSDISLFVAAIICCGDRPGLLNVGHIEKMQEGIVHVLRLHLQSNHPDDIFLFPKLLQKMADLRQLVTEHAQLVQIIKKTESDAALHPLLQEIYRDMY

[13] = molecular target: T5, GST–PPARα fusion protein (purified ligand binding domain of PPARα); assay: FRET or BRET; homogeneous TR-FRET as a1, 12-concentration dose–response of RO4899100; the EC50 is of the compound; delta ratio in % of the reference compound at 10 μM (RO4899100 for PPARα, edaglitazone for PPARγ)
[14] = molecular target: T5, GST–PPARα fusion protein (purified ligand binding domain of PPARα); assay: FRET or BRET; homogeneous TR-FRET as a1, 12-concentration dose–response of aleglitazar; the EC50 is of the compound; delta ratio in % of the reference compound at 10 μM (RO4899100 for PPARα, edaglitazone for PPARγ)
[15] = molecular target: T5, GST–PPARα fusion protein (purified ligand binding domain of PPARα); assay: FRET or BRET; homogeneous TR-FRET as a1, 12-concentration dose–response of muraglitazar; the EC50 is of the compound; delta ratio in % of the reference compound at 10 μM (RO4899100 for PPARα, edaglitazone for PPARγ)
[16] = molecular target: T5, GST–PPARα fusion protein (purified ligand binding domain of PPARα); assay: FRET or BRET; homogeneous TR-FRET as a1, 12-concentration dose–response of fenofibric acid; the EC50 is of the compound; delta ratio in % of the reference compound RO4899100 at 10 μM
[17] = molecular target: T5, GST–PPARα fusion protein (purified ligand binding domain of PPARα); assay: FRET or BRET; homogeneous TR-FRET as a1, 12-concentration dose–response of tesaglitazar; the EC50 is of the compound; delta ratio in % of the reference compound at 10 μM (RO4899100 for PPARα, edaglitazone for PPARγ)
[18] = molecular target: T5, GST–PPARα fusion protein (purified ligand binding domain of PPARα); assay: FRET or BRET; homogeneous TR-FRET as a1, 12-concentration dose–response of edaglitazone; the EC50 is of the compound; delta ratio in % of the reference compound at 10 μM (RO4899100 for PPARα, edaglitazone for PPARγ)
[19] = molecular target: T5, GST–PPARα fusion protein (purified ligand binding domain of PPARα); assay: FRET or BRET; homogeneous TR-FRET as a1, 12-concentration dose–response of rosiglitazone; the EC50 is of the compound; delta ratio in % of the reference compound at 10 μM (RO4899100 for PPARα, edaglitazone for PPARγ)

Molecule: Cc1oc(-c2ccccc2)nc1CCOc1ccc(CC2SC(=O)NC2=O)c2sccc12 (stereo not drawn) [Edaglitazone]
EC50 [1]: 1050 nM

Molecule: CC(C)(Oc1ccc(C(=O)c2ccc(Cl)cc2)cc1)C(=O)O [Fenofibric acid]
PPARδ / EC50 [2]: 1470 nM | EC50 [3]: 1060 nM

B3: NCoR ID2 cofactor peptide (nuclear receptor co-repressor, interaction domain 2) (peptide)
peptide: {Biotin-Ahx}-ADPASNLGLEDIIRKALMGSF
notes: nuclear receptor co-repressor (NCoR), ID2; also called NCoR2; NcoR2; source: synthetic peptide (Jerini or Biosynthan, Berlin)
EC50 of pioglitazone for displacement [12]: 3220 nM | delta ratio with pioglitazone [12]: -54% | EC50 of aleglitazar for displacement [5]: 15.3 nM | EC50 of farglitazar for displacement [6]: 13.6 nM | EC50 of RO4899100 for displacement [13]: 18.5 nM | EC50 of pioglitazone for displacement [7]: 9420 nM | EC50 of aleglitazar for displacement [14]: 1.7 nM | delta ratio with aleglitazar [14]: -61% | EC50 of muraglitazar for displacement [15]: 139 nM | delta ratio with muraglitazar [15]: -50% | EC50 of fenofibric acid for displacement [16]: 1900 nM | delta ratio with fenofibric acid [16]: -55% | EC50 of tesaglitazar for displacement [17]: 646 nM | delta ratio with tesaglitazar [17]: -54% | EC50 of rosiglitazone for displacement [8]: 497 nM | EC50 of tesaglitazar for displacement [9]: 537 nM | EC50 of muraglitazar for displacement [10]: 63.4 nM | EC50 of edaglitazone for displacement [18]: 1950 nM | delta ratio with edaglitazone [18]: -44% | EC50 of edaglitazone for displacement [11]: 57.1 nM | EC50 of rosiglitazone for displacement [19]: 3000 nM | delta ratio with rosiglitazone [19]: -31%

B4: CBP cofactor peptide (cAMP responsive element binding protein (CREB)-binding protein) (peptide)
peptide: {Biotin-Ahx}-SGNLVPDAASKHKQLSELLRGGSGS
notes: source: synthetic peptide (Jerini or Biosynthan, Berlin)
EC50 of RO4899100 for recruitment [4]: 1990 nM | EC50 of aleglitazar for recruitment [5]: 3.3 nM | EC50 of farglitazar for recruitment [6]: 3 nM | EC50 of pioglitazone for recruitment [7]: 79.1 nM | EC50 of rosiglitazone for recruitment [8]: 10.4 nM | EC50 of tesaglitazar for recruitment [9]: 13.9 nM | EC50 of muraglitazar for recruitment [10]: 4.3 nM | EC50 of edaglitazone for recruitment [11]: 7.2 nM

Continued, values first:

PPARδ / EC50 [nM] [2]: 19 900 nM
Molecule: Cc1nc(-c2ccc(C(F)(F)F)cc2)ccc1CN(C)C(=O)c1cccc(OC(C)(C)C(=O)O)c1 [RO4899100, 2-methyl-2-(3-{methyl-[2-methyl-6-(4-trifluoromethyl-phenyl)pyridin-3-ylmethyl]carbamoyl}phenoxy)propionic acid]

EC50 of RO4899100 for recruitment [4]: 2080 nM | EC50 of aleglitazar for recruitment [5]: 3.2 nM | EC50 of farglitazar for recruitment [6]: 3.8 nM | EC50 of pioglitazone for recruitment [7]: 196 nM | EC50 of rosiglitazone for recruitment [8]: 18.5 nM | EC50 of tesaglitazar for recruitment [9]: 24.4 nM | EC50 of muraglitazar for recruitment [10]: 5.7 nM | EC50 of edaglitazone for recruitment [11]: 9.8 nM
B1: SRC1_M2 cofactor peptide (steroid receptor co-activator 1, motif 2) (peptide)
peptide: {Biotin-Ahx}-CPSSHSSLTERHKILHRLLQEGSPS
notes: as for B4

EC50 of RO4899100 for recruitment [4]: 1450 nM | EC50 of aleglitazar for recruitment [5]: 3.4 nM | EC50 of farglitazar for recruitment [6]: 3.3 nM | EC50 of pioglitazone for recruitment [7]: 222 nM | EC50 of rosiglitazone for recruitment [8]: 23.5 nM | EC50 of tesaglitazar for recruitment [9]: 25.5 nM | EC50 of muraglitazar for recruitment [10]: 6.1 nM
B2: SRC1_M4 cofactor peptide (steroid receptor co-activator 1, motif 4) (peptide)
peptide: {Biotin-Ahx}-TSGPQTPQAQQKSLLQQLLTE
notes: as for B4

EC50 of RO4899100 for recruitment [4]: 4410 nM | EC50 of aleglitazar for recruitment [5]: 3.2 nM | EC50 of farglitazar for recruitment [6]: 3.5 nM | EC50 of pioglitazone for recruitment [7]: 431 nM | EC50 of rosiglitazone for recruitment [8]: 41.3 nM | EC50 of tesaglitazar for recruitment [9]: 31.6 nM | EC50 of muraglitazar for recruitment [10]: 6.2 nM | EC50 of edaglitazone for recruitment [11]: 9.5 nM
B5: TRAP220 cofactor peptide (thyroid hormone receptor-associated protein complex 220 kDa component, motif 2) (peptide)
peptide: {Biotin-Ahx}-GNTKNHPMLMNLLKDNPAQDF
notes: thyroid hormone receptor-associated protein complex 220 kDa component (TRAP220), motif 2, residues 637-657; also called TRAP220_M2; TRAP220 M2; source: synthetic peptide (Jerini or Biosynthan, Berlin)
